Measured values from US20250276050A1.

B1: cIL-13-His6 (canine IL-13 with start methionine and C-terminal His6-tag, expressed in E. coli) (ligand)
chain: MSPSPVTPSPTLKELIEELVNITQNQASLCNGSMVWSVNLTAGMYCAALESLINVSDCSAIQRTQRMLKALCSQKPAAGQISSERSRDTKIEVIQLVKNLLTYVRGVYRHGNFRHHHHHH

How the values were obtained:
[1] = molecular target: heterodimeric IL-1RL1/IL-1RAcP on the surface of HEK-Blue IL-33 cells (human) (UniProt Q01638); experiment: cell-based or functional assay
[2] = molecular target: receptor subunits IL4Rα and IL-13Rα1 naturally expressed on HEK-Blue IL-4/IL-13 cells (UniProt P24394); experiment: cell-based or functional assay

| Molecule | SEAP reporter enzyme readout, EC50 (HEK-Blue IL-33 cells) [1] | SEAP reporter enzyme readout, EC50 (HEK-Blue IL-4/IL-13 cells) [2] |
| --- | --- | --- |
| His6-cIL-33-CS (amino acids 110-263 of dog IL-33 with the 3 cysteines replaced by serine, start methionine and N-terminal His6-tag, expressed in E. coli) (from UniProt O97863 110-263) (ligand) | 10 ng/mL | – |
| B1 | – | 2 ng/mL |
